# Source: PMC9381478 (Cellular and Molecular Life Sciences: CMLS, 2022)
# T1: Spd1 (full-length) (S. pombe, UniProt Q10585 1-124)
# T1 construct: Spd1 of S. pombe; also called 15N-Spd1
# T1 sequence (looked up): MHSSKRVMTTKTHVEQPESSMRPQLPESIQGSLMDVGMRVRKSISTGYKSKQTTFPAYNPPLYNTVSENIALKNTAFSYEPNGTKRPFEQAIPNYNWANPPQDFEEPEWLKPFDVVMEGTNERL
# B1: S. pombe ubiquitin with an N-terminal 6xhistidine-tag, TEV-cleavage site and an N-terminal free cysteine (natural protein)
# chain: not shown
# notes: ubiquitin of S. pombe, the cut product of its precursors; An added free cysteine stands N-terminal of ubiquitin together with the tag and the TEV linker; Used 15N-labelled or unlabelled; also called 15N-labeled ubiquitin; 15N-ubiquitin; source: E. coli BL21(DE3), purified (nickel Sepharose, SEC); not shown: His6, N-terminal, kept; TEV cleavage site, N-terminal, kept
# What was measured:
# [1] = biological target: B1; test: NMR titration; 100 µM 15N-ubiquitin, unlabelled peptide or protein added or titrated (peptides to 1 mM, WT Dss1 peptide to 5 mM); 20 mM NaH2PO4, 150 mM NaCl, 5 mM TCEP, pH 7.5; CSPs of 1H-15N-HSQC, global fit to a one-site model; conditions: both partners purified
# Spd1 (full-length) = biological target: T1, Spd1 (full-length); test: NMR titration; 30 µM 15N-Spd1 with 560 µM ubiquitin added; CSPs mapped on Spd1; conditions: both partners purified
Kd [1],binding result (Spd1 (full-length)),Binder
600 ± 30 µM,,"Ac-DDTLWWEDDWWDDED-NH2 (PepDW with the two asparagines of the core substituted with aspartates; also called DWD peptide; source: synthetic peptide, bought: TAG Copenhagen) [PepDWD]"
1300 ± 120 µM,,"Ac-DLWENNWDLWENNWD-NH2 (core motif WENNW of S. pombe Dss1 (O14140) repeated; also called double motif; Pep43 (as soluble peptide); source: synthetic peptide, bought: TAG Copenhagen) [PepDM]"
1200 ± 90 µM,,"Ac-DDTLWWENNWWDDED-NH2 (UBS1 of S. pombe Dss1 (O14140) with two extra tryptophans; also called double tryptophan; Pep42 (as soluble peptide); source: synthetic peptide, bought: TAG Copenhagen) [PepDW]"
3000 ± 200 µM,,"Ac-GDDTLWENNWDDEDI-NH2 (also called WT Dss1 peptide; UBS1 from Dss1; source: synthetic peptide, bought: TAG Copenhagen) [wild-type Dss1 peptide]"
380 ± 40 µM,,"Dss1 N71C (mentioned as ""Dss1 WT"") (natural protein, S. pombe, UniProt O14140 1-71, looked up, Dss1 (deleted in split hand/split foot 1) of S. pombe; Used unlabelled, 15N- or 13C,15N-labelled; also called full-length Dss1; WT Dss1; source: E. coli BL21(DE3), purified (nickel Sepharose, ULP1 cleavage, reversed phase); not shown: His6-SUMO, N-terminal, cleaved) MSRAALPSLENLEDDDEFEDFATENWPMKDTELDTGDDTLWENNWDDEDIGDDDFSVQLQAELKKKGVAAC"
,binds,B1
480 ± 40 µM,,"Ac-DLWEDDWDLWEDDWD-NH2 (PepDM with the asparagines of the core substituted with aspartates; also called DMD peptide; source: synthetic peptide, bought: TAG Copenhagen) [PepDMD]"
